Results as given in patent US20180127505A1, “HUMANIZED ANTI-AXL ANTIBODIES AND THEIR CONJUGATES” (MEDIMMUNE LIMITED, priority 2015, published 2018).

Target: T1, human Axl-Strep-His (Homo sapiens, UniProt P30530, Q764R)
T1 construct: Strep; His; host or cells: transiently transfected CHO cells
T1 sequence (P30530 26-894 Q764R): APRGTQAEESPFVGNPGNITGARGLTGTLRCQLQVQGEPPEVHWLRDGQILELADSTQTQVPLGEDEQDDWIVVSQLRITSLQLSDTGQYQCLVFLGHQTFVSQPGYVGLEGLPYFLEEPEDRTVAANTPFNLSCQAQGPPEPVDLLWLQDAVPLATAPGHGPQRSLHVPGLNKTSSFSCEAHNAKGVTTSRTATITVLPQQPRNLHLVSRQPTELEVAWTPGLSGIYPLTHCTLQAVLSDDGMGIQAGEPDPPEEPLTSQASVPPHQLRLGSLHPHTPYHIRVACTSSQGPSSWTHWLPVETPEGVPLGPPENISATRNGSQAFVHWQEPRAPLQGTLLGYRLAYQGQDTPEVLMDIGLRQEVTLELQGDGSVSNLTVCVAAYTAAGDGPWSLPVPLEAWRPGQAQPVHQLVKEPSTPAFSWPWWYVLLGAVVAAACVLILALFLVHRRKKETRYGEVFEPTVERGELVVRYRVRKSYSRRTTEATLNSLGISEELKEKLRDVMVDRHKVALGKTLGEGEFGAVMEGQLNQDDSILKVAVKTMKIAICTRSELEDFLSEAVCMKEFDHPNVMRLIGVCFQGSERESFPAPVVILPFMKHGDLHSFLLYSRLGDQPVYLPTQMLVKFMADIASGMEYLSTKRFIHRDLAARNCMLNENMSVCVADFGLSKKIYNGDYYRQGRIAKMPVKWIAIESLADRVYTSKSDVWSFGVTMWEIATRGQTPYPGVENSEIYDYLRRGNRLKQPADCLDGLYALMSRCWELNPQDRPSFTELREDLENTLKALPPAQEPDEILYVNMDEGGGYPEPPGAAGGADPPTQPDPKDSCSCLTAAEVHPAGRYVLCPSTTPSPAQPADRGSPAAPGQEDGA
Experiment: SPR measurement of antibody affinity, AXL-Strep-His antigen
Type: binding
Conditions: for ka, AXL-Strep-His antigen / kd, AXL-Strep-His antigen / Kd: SPR Biacore T200, 25 C, bivalent ligand model (Ab1: heterogeneous ligand model); for affinity for Axl-Strep-His compared with Ab1: SPR; for Kd: read-out: KD1, AXL-Strep-His antigen
Protocol: Protocol 4A: SPR Measurement of Antibody Affinity
• 1. Sensor Chip CM5 Biacore; Cat. # BR-1000-14 • 2. Amine Coupling Kit (EDC, NHS, ethanolamine-HCl) Biacore; Cat. # BR-1000-50 • 3. Immobilization buffer (10 mM Na acetate, pH 4.0) Biacore; Cat. # BR-1003-49 • 4. 50 mM NaOH Biacore; Cat. # BR-1003-58 • 5. Running buffer (PBS/Tween20 0.05% v/v) • 6. Biacore T200 GE Healthcare • 7. Regeneration solution: 10 mM HCl, 1 M NaCl
• Activate flow cell 2 with NHS-EDC 420s at 5 μl/min, then inject human AxI-Strep-His (Evitria) (10 μg/mL in 10 mM sodium acetate, pH 4.0) to achieve a coupling of […]. Block with ethanolamine for 420s. Repeat the process for flow cell 1 but with no antigen to create a reference flow cell. 12RU AXL fusion protein was coated. • For the Fc fusion, Human Axl-Fc chimera (R&D Systems #154-AL) (5 μg/mL in 10 mM sodium acetate, pH 4.5) was used with the above protocol. 16RU of AXL-Fc was coated. Protocol with AXL-Strep-His Antigen • Serial 10x dilutions of antibody, from 3000 nM, were made in PBS/Tween20. 2x regeneration cycles were used with 10 mM HCl, 1 M NaCl for 30s at 30 μl/min for both cycles. Start-up solution was PBS/Tween20 and set to 3 cycles. • Sample injection parameters were 120s at 30 μl/min, with 600s dissociation time. • Prime and normalise detector were run before sample application with experimental conditions 25 C and sample storage at 4 C. • Kinetic analysis used BIAevaluation software with bivalent ligand binding model. For chimeric 1H12 with AXL-Strep-His, “heterogeneous ligand” binding model was used due to poor fit with bivalent or monovalent algorithms. • Each antibody dilution was injected twice. Protocol with AXL-Fc Chimera Antigen • The above protocol was used except that the running buffer was HBSEP+, serial 10x dilutions of antibody were from 500 nM in HBSEP+ running buffer and were injected for 180 sec. • Analysis used BIAevaluation software with the bivalent binding model.

| Molecule | ka, AXL-Strep-His antigen [M⁻¹ s⁻¹] | kd, AXL-Strep-His antigen [s⁻¹] | affinity for Axl-Strep-His compared with Ab1 | Kd [nM] |
| --- | --- | --- | --- | --- |
| Ab1 (antibody, V domains shown) VH: EVQLVESGGDLVKPGGSLKLSCAASGFTFSSYGMSWVRQTPDKRLEWVATISSGGSYTYYPDSVKGRFTISRDNAKNTLYLQMSSLKSEDTAMYYCARHPIYYTYDDTMDYWGQGTSVTVSS VL: ENVLTQSPAIMAASPGEKVTMTCSASSSVSSGNFHWYQQKPGTSPKLWIYRTSNLASGVPARFSGSGSGTSYSLTISSMEAEDAATYYCQQWSGYPWTFGGGTKLEIK | 13100 | 0.000533 |  |  |
| Ab2: anti-AXL antibody, VH SEQ ID NO. 2, VL SEQ ID NO. 5, constant region derived from human antibodies (antibody, V domains shown, human constant regions; Synthetic heavy chain variable region 1H12RHA; Synthetic light chain variable region 1H12RKA, 5, constant region derived from human antibodies) VH: MGFKMESQFQVFVFVFLWLSGVDGQVQLVESGGGVVQPGRSLRLSCAASGFTFSSYGMSVRQAPGKGLEWVATISSGGSYTYYPDSVKGRFTISRDNSKNTLYLQMNSLRAEDTAVYYCARHPIYYTYDDTMDYWGQGTTVTVSS VL: MGFKMESQFQVFVFVFLWLSGVDGEIVLTQSPATLSLSPGERATLSCSASSSVSSGNFHWYQQKPGLAPRLLIYRTSNLASGIPDRFSGSGSGTDFTLTISRLEPEDFAVYYCQQWSGYPWTFGPGTKVDIK | 13200 | 0.000441 | higher affinity | 33.4 |
| Ab3: anti-AXL antibody, VH SEQ ID NO. 2, VL SEQ ID NO. 7, constant region derived from human antibodies (antibody, V domains shown, human constant regions; Synthetic heavy chain variable region 1H12RHA; Synthetic light chain variable region 1H12RKB, 7, constant region derived from human antibodies) VH: MGFKMESQFQVFVFVFLWLSGVDGQVQLVESGGGVVQPGRSLRLSCAASGFTFSSYGMSVRQAPGKGLEWVATISSGGSYTYYPDSVKGRFTISRDNSKNTLYLQMNSLRAEDTAVYYCARHPIYYTYDDTMDYWGQGTTVTVSS VL: MGFKMESQFQVFVFVFLWLSGVDGEIVLTQSPGTLSLSPGERATLSCSASSSVSSGNFHWYQQKPGLAPRLLIYRTSNLASGIPARFSGSGSGTDFTLTISSLEPEDFAVYYCQQWSGYPWTFGGGTKLEIK | 19200 | 0.000636 | higher affinity | 33.1 |
| Ab5: anti-AXL antibody, VH SEQ ID NO. 3, VL SEQ ID NO. 7, constant region derived from human antibodies (antibody, V domains shown, human constant regions; Synthetic heavy chain variable region 1H12RHB; Synthetic light chain variable region 1H12RKB, 7, constant region derived from human antibodies) VH: MGFKMESQFQVFVFVFLWLSGVDGEVQLVESGGGLVQPGGSLRLSCAASGFTFSSYGMSWVRQAPGKGLEWVATISSGGSYTYYPDSVKGRFTISRDNAKNSLYLQMNSLRAEDTAVYYCARHPIYYTYDDTMDYWGQGTLVTVSS VL: MGFKMESQFQVFVFVFLWLSGVDGEIVLTQSPGTLSLSPGERATLSCSASSSVSSGNFHWYQQKPGLAPRLLIYRTSNLASGIPARFSGSGSGTDFTLTISSLEPEDFAVYYCQQWSGYPWTFGGGTKLEIK | 18900 | 0.000435 | higher affinity |  |
| Ab4: anti-AXL antibody, VH SEQ ID NO. 3, VL SEQ ID NO. 5, constant region derived from human antibodies (antibody, V domains shown, human constant regions; Synthetic heavy chain variable region 1H12RHB; Synthetic light chain variable region 1H12RKA, 5, constant region derived from human antibodies) VH: MGFKMESQFQVFVFVFLWLSGVDGEVQLVESGGGLVQPGGSLRLSCAASGFTFSSYGMSWVRQAPGKGLEWVATISSGGSYTYYPDSVKGRFTISRDNAKNSLYLQMNSLRAEDTAVYYCARHPIYYTYDDTMDYWGQGTLVTVSS VL: MGFKMESQFQVFVFVFLWLSGVDGEIVLTQSPATLSLSPGERATLSCSASSSVSSGNFHWYQQKPGLAPRLLIYRTSNLASGIPDRFSGSGSGTDFTLTISRLEPEDFAVYYCQQWSGYPWTFGPGTKVDIK | 9759 | 0.00059 |  |  |
